Assay results reported in paper PMC5628404 (2017).
Like-named read-outs stand apart in the source and are kept apart here.

Legend:
Assay in all cases: SPR
[1] = target: T1, M1-linked di-ubiquitin chain (M1-Ub2) (human, UniProt P0CG48 1-76; P0CG48 1-76)
[2] = target: M1-linked tri-ubiquitin chain (M1-Ub3) (human, UniProt P0CG48 1-76; P0CG48 1-76; P0CG48 1-76)
[3] = target: M1-linked tetra-ubiquitin chain (M1-Ub4) (human, UniProt P0CG48 1-76; P0CG48 1-76; P0CG48 1-76; P0CG48 1-76)
[4] = target: T2, K27-linked di-ubiquitin (K27-Ub2) (human, UniProt P0CG48 1-76, isopeptide linkage between the C-terminal glycine of one ubiquitin and K27 of the other)
[5] = target: T1, M1-linked di-ubiquitin chain (M1-Ub2); remark: listed apart in the source
[6] = target: T3, K63-linked di-ubiquitin (K63-Ub2) (human, UniProt P0CG48 1-76, isopeptide linkage between the C-terminal glycine of one ubiquitin and K63 of the other)
[7] = target: T2, K27-linked di-ubiquitin (K27-Ub2); remark: listed apart in the source
[8] = target: T1, M1-linked di-ubiquitin chain (M1-Ub2); remark: listed apart in the source
[9] = target: T3, K63-linked di-ubiquitin (K63-Ub2); remark: listed apart in the source
[10] = target: T2, K27-linked di-ubiquitin (K27-Ub2); remark: listed apart in the source

Kd [1]	Kd [2]	Kd [3]	Kd [4]	koff [5]	koff [6]	koff [7]	Kd [8]	Kd [9]	Kd [10]	Binder
60.8 nM	48.5 nM	22 nM	171 nM	–	–	–	–	–	–	BRAP (124–569) (RNF52 domain) (domain or fragment) DQISFFSGNPSVEIVHGIMHLYKTNKMTSLKEDVRRSAMLCILTVPAAMTSHDLMKFVAPFNEVIEQMKIIRDSTPNQYMVLIKFRAQADADSFYMTCNGRQFNSIEDDVCQLVYVERAEVLKSEDGASLPVMDLTELPKCTVCLERMDESVNGILTTLCNHSFHSQCLQRWDDTTCPVCRYCQTPEPVEENKCFECGVQENLWICLICGHIGCGRYVSRHAYKHFEETQHTYAMQLTNHRVWDYAGDNYVHRLVASKTDGKIVQYECEGDTCQEEKIDALQLEYSYLLTSQLESQRIYWENKIVRIEKDTAEEINNMKTKFKETIEKCDNLEHKLNDLLKEKQSVERKCTQLNTKVAKLTNELKEEQEMNKCLRANQVLLQNKLKEEERVLKETCDQKDLQITEIQEQLRDVMFYLETQQKINHLPAETRQEIQEGQINIAMASA
–	–	–	–	0.00264 s⁻¹	0.00395 s⁻¹	0.00302 s⁻¹	5.19 nM	11.3 nM	6.27 nM	BRAP (1–592) (full-length) (natural protein) MSVSLVVIRLELAEHSPVPAGFGFSAAAGEMSDEEIKKTTLASAVACLEGKSPGEKVAIIHQHLGRREMTDVIIETMKSNPDELKTTVEERKSSEASPTAQRSKDHSKECINAAPDSPSKQLPDQISFFSGNPSVEIVHGIMHLYKTNKMTSLKEDVRRSAMLCILTVPAAMTSHDLMKFVAPFNEVIEQMKIIRDSTPNQYMVLIKFRAQADADSFYMTCNGRQFNSIEDDVCQLVYVERAEVLKSEDGASLPVMDLTELPKCTVCLERMDESVNGILTTLCNHSFHSQCLQRWDDTTCPVCRYCQTPEPVEENKCFECGVQENLWICLICGHIGCGRYVSRHAYKHFEETQHTYAMQLTNHRVWDYAGDNYVHRLVASKTDGKIVQYECEGDTCQEEKIDALQLEYSYLLTSQLESQRIYWENKIVRIEKDTAEEINNMKTKFKETIEKCDNLEHKLNDLLKEKQSVERKCTQLNTKVAKLTNELKEEQEMNKCLRANQVLLQNKLKEEERVLKETCDQKDLQITEIQEQLRDVMFYLETQQKINHLPAETRQEIQEGQINIAMASASSPASSGGSGKLPSRKGRSKRGK
